Bridge positions count the residues as written; N and C are the ends. * marks the point of attachment. Biotin = O=C1N[C@H]2[C@H](CS[C@H]2CCCCC(=O)*)N1
What was measured:
[1] = target: T1, soluble recombinant GPVI-Fc fusion protein (human, UniProt Q9HCN6 21-269, limits assumed); assay: SPR; biotin-collagelin on a streptavidin sensorchip
T1 construct: also called recombinant soluble GPVI; recombinant soluble human GPVI-Fc; not shown: Fc part
T1 sequence (looked up): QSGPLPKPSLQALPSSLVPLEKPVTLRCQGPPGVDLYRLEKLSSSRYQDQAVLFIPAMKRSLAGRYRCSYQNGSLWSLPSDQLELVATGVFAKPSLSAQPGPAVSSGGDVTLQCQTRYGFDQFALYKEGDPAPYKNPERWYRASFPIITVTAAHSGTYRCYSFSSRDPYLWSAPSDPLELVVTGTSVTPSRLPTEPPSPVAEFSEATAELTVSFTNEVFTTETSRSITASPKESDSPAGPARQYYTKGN

[2] = target: T2, type I equine fibrillar collagen (Collagen Horm, Nycomed) (equine); assay: SPR; biotin-collagelin injected on collagen amine-coupled to a CM5 sensorchip
T2 construct: Bought fibrillar preparation; also called type I collagen; fibrillar type I collagen
Procedure: FIG. 2: Interaction of the collagelin with collagen: A Collagen was injected on biotin-collagelin immobilized on a streptavidin coated sensorchip. ˜10 RU collagen were bound onto the collagelin coated surface (dark). The fit is also indicated (grey). Non-specific background signal from a control flow cell coated with an irrelevant peptide was deduced. B Binding of collagelin to immobilized collagen. Increasing quantities of biotin-collagelin (250, 500 μg.mL−1) were injected on a collagen immobilized on a CM5 sensorchip. Sensorgrams and interaction fits obtained with the peptide are shown in black and grey respectively. Non-specific background measured using an irrelevant peptide was deduced.
In other experiments, fibrillar collagen was manually immobilized on a CM5-sensorchip according to the manufacturer's instructions (Biacore, Uppsala, Sweden). The biotinylated peptide (125; 250, 500 and 1000 μg/mL) was injected on immobilized collagen at 25° C. with a flow rate of 20 μL.min−1. In competition experiments, the peptide was pre-incubated with recombinant soluble human GPVI-Fc or the 9O12.2 IgGs before injection onto the surface. The surface plasmon resonance intensity was monitored and data analyzed using BioEval2.0 (Biacore).
Using the streptavidin-coated sensorship onto which biotin-collagelin was immobilized we observed binding of type I collagen to the surface (FIG. 2A). […]

[3] = target: T3, bovine fibrinogen (Sigma) (bovine, UniProt P02672 20-615; P02676 1-468; P12799 25-444, limits assumed); assay: Solid phase assay: biotin-collagelin on coated fibrinogen, detected with peroxidase-coupled extravidin [panel B]
T3 construct: Bought protein
T3 sequence (looked up) 1: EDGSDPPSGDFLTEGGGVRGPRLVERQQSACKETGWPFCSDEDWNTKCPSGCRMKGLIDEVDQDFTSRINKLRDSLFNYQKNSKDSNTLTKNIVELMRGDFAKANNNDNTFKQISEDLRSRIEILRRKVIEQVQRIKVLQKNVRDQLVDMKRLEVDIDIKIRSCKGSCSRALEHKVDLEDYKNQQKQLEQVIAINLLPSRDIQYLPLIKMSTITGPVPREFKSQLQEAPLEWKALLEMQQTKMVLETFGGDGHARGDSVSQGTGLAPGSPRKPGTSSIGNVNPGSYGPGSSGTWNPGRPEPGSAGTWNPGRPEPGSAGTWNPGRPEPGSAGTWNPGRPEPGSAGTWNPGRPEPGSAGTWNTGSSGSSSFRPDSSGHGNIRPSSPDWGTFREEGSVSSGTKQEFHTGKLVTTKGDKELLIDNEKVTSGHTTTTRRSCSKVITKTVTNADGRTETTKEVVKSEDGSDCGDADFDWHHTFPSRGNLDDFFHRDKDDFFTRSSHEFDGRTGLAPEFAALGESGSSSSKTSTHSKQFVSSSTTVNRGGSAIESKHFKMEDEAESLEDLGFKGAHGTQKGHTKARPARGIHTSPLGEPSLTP
T3 sequence (looked up) 2: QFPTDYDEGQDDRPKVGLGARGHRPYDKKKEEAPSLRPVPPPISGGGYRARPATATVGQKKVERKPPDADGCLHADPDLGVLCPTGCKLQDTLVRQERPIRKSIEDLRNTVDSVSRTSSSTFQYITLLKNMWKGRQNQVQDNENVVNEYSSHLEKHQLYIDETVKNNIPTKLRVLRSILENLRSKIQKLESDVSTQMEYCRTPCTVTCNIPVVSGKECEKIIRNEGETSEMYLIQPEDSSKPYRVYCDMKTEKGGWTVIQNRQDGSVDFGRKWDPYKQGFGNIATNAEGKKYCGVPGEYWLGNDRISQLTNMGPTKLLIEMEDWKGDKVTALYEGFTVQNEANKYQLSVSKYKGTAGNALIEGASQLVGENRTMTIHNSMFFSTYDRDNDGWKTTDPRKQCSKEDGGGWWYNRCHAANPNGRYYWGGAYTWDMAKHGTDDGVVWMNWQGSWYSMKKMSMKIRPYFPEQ
T3 sequence (looked up) 3: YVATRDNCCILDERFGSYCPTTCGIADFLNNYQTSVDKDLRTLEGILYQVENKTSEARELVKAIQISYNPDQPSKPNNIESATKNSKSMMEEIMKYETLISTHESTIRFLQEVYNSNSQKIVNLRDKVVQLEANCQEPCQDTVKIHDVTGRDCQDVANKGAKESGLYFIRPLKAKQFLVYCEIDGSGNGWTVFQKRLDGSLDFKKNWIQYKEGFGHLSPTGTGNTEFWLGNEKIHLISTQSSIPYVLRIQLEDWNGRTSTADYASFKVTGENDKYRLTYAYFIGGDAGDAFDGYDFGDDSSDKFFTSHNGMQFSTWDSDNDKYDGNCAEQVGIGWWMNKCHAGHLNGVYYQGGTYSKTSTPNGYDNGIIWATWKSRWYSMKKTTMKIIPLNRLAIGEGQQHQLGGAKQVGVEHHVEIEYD
Procedure: (§1) FIG. 3: Peptide Interaction with collagen and with different macromolecules: A Binding of collagelin to immobilized collagen in microtitration plates. biotin-collagelin or control peptide were incubated with immobilized fibrillar type I collagen and bound peptide was detected using peroxydase-coupled extravidine. In competition experiments collagelin was mixed with recombinant soluble GPVI (50 and 20 μg.mL−1), 9O12 IgGs (50 and 20 μg.mL−1) or 3J24.2 IgGs (50 μg.mL−1) prior to addition to collagen-coated wells. B: Binding of biotin-collagelin or control peptide (50 μg.mL−1) to immobilized fibrinogen, fibronectin, vitronectin and laminin. Coating of microtitration wells with the different proteins was performed as with collagen. Bound peptides were detected using peroxidase coupled extravidine.
(§2) Proteins [type I equine fibrillar collagen (Horm), bovine fibrinogen (Sigma), human fibronectin (Sigma), rat vitronectin (Sigma), murine laminin (Gibco), and bovine serum albumin (BSA Sigma)] were coated (1 μg/well) on microtitration plates (Immulon 2 Dynex vWR) for 24 hours at 4° C. After saturation of free sites with BSA, biotinylated FLIGPVI peptide (50 μg/ml) was added to the wells for 2 hours. The peptide bound to the wells was then detected using extravidin-HRP and orthophenyldiamine as substrate.

[4] = target: T4, human fibronectin (Sigma) (human, UniProt P02751-8 32-2296, limits assumed); assay: Solid phase assay: biotin-collagelin on coated fibronectin, detected with peroxidase-coupled extravidin [panel B]
T4 construct: Bought protein
Procedure: as §1, §2

T4 sequence (P02751 other isoform, or with tags, fused parts or gaps limits assumed): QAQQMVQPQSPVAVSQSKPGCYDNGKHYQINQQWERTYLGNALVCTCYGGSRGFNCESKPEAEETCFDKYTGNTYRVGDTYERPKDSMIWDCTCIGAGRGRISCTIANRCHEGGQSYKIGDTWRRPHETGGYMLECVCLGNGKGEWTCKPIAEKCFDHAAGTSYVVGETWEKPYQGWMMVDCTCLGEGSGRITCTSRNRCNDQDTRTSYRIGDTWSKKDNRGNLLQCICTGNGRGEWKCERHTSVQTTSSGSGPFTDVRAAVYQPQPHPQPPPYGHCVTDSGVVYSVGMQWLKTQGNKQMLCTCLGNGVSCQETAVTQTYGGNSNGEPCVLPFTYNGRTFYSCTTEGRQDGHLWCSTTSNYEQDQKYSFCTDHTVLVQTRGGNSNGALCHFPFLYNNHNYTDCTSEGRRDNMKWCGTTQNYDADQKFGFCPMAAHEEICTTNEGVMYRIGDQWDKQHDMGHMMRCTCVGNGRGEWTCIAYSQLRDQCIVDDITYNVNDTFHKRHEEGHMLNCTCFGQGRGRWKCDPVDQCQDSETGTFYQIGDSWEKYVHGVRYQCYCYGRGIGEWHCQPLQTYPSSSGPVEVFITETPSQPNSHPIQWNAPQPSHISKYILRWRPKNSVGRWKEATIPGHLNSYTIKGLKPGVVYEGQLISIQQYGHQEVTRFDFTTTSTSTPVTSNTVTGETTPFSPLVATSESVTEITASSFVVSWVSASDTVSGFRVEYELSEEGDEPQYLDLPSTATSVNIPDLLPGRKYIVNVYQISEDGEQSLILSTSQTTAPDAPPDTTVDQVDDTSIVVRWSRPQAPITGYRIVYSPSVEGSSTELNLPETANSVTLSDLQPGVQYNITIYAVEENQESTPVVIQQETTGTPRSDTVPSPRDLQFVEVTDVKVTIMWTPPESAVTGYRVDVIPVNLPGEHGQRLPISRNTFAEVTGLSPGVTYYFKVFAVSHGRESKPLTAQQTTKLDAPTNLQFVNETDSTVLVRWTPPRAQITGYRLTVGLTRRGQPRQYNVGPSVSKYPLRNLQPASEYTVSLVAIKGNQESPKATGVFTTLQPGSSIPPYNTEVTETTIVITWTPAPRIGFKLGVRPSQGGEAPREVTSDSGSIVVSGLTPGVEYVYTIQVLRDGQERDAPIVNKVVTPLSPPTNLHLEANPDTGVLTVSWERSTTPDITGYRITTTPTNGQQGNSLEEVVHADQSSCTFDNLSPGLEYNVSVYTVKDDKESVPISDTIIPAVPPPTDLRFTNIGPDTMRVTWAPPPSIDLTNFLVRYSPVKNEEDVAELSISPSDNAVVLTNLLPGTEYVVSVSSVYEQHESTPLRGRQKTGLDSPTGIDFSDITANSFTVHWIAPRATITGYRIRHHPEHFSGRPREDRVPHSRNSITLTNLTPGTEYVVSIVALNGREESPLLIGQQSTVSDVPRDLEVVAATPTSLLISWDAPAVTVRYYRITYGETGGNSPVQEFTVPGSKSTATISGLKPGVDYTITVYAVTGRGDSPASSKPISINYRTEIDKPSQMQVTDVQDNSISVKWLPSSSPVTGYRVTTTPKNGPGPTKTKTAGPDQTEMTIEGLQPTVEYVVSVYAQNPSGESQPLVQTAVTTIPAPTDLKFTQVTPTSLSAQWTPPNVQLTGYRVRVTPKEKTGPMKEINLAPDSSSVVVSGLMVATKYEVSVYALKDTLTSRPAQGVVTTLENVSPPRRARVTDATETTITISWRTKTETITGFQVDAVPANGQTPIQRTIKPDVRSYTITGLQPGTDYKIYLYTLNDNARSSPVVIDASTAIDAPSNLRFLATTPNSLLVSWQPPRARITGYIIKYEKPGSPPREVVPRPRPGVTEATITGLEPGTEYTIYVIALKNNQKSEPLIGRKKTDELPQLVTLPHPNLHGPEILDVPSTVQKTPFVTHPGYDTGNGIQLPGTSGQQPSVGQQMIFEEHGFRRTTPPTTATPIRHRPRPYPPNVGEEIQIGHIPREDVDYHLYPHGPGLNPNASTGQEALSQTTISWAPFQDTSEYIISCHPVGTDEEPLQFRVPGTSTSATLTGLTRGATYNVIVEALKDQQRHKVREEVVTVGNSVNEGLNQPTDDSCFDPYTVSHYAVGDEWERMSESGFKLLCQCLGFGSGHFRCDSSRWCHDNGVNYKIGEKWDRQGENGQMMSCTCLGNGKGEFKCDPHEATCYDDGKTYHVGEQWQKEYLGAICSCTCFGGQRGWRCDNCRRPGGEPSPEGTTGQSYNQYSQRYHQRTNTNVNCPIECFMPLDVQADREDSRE

- binding result [1]: no binding (tested: 25 µg/ml)
- Kd [2]: 100 nM
- binding result [3]: no binding (tested: 50 µg/mL (legend))
- binding result [4]: no binding (tested: 50 µg/mL (legend))
B1: biotin-collagelin (peptide)
peptide: Biotin-SGSGCGPRVMHGLHLGDDEGPC-NH2
modifications: disulfide 5-22
SMILES: CSCC[C@@H]1NC(=O)[C@H](C(C)C)NC(=O)[C@H](CCCNC(=N)N)NC(=O)[C@@H]2CCCN2C(=O)CNC(=O)[C@@H](NC(=O)CNC(=O)[C@H](CO)NC(=O)CNC(=O)[C@H](CO)NC(=O)CCCC[C@@H]2SC[C@@H]3NC(=O)N[C@@H]32)CSSC[C@@H](C(N)=O)NC(=O)[C@@H]2CCCN2C(=O)CNC(=O)[C@H](CCC(=O)O)NC(=O)[C@H](CC(=O)O)NC(=O)[C@H](CC(=O)O)NC(=O)CNC(=O)[C@H](CC(C)C)NC(=O)[C@H](Cc2c[nH]cn2)NC(=O)[C@H](CC(C)C)NC(=O)CNC(=O)[C@H](Cc2c[nH]cn2)NC1=O
notes: also called biotinylated collagelin

From US20100303724A1 (UNIVERSITE PARIS DIDEROT PARIS 7, published 2010)
